Experiments:
[1] = Measurement of the secondary structure of each peptide by a CD spectrum; format: physicochemical; details: peptide 100 μM, 20 mM Tris-HCl buffer (pH 7.4); for secondary structure by CD spectrum: CD at 25° C.; for CD spectral change with time: incubated at ordinary temperatures
Protocol: The peptide (10-4F), (10-3L), (10-3F), (10-3A), Aβ (14-23) or Aβ (10-35) synthesized in Example 1, which was contained alone in an aqueous solution, was evaluated for its ability to form amyloid fibrils. The secondary structure was examined using a CD spectrum, and the ability to form amyloid fibrils was evaluated with dye thioflavin T (ThT) binding specifically to amyloid fibrils to emit fluorescence, under a transmission electron microscope (TEM).
Solutions of the respective synthesized peptides, 2 mM, in trifluoroethanol (TFE) were prepared and used as stock solutions respectively. Each stock solution was diluted to a final peptide concentration of 100 μM with 20 mM Tris-HCl buffer (pH 7.4), then incubated at ordinary temperatures, and measured for CD spectrum at 25° C. (FIG. 1).

[2] = Evaluation, with ThT, of the ability of the artificial peptide used alone to form amyloid fibrils; details: peptide 200 μM alone; for time required to finish formation of fibrils at 40° C. compared with ordinary temperatures: incubation at 40° C.; for time having elapsed until the increase in fluorescent intensity was finished: incubation at room temperature
Protocol: The peptide (10-4F), (10-3L), (10-3F), (10-3A), Aβ (14-23) or Aβ (10-35) synthesized in Example 1, which was contained alone in an aqueous solution, was evaluated for its ability to form amyloid fibrils. The secondary structure was examined using a CD spectrum, and the ability to form amyloid fibrils was evaluated with dye thioflavin T (ThT) binding specifically to amyloid fibrils to emit fluorescence, under a transmission electron microscope (TEM). The ability of each artificial peptide obtained in Example 1 to form amyloid fibrils when used alone was evaluated using ThT. Starting solution used: [peptide]=2 mM solution in TFE Concentration: [peptide]=200 μM in 20 mM Tris-HCl buffer (pH 7.4) Temperature: room temperature or 40° C. Concentrations: [peptide]=5 μM, [ThT]=6 μM (20 mM Tris-HCl buffer (pH 7.4)) Temperature: room temperature Stirring conditions: The whole volume of the reaction mixture was sufficiently stirred with a Pasteur pipette before sampling, and then sufficiently stirred in a cell with a Pasteur pipette. Excitation wavelength: 440 nm, detection wavelength: 482 nm. The formation of fibrils was slow at ordinary temperatures to make it difficult to monitor the change with time, so the ability of each artificial peptide used alone to form fibrils was then evaluated at an elevated temperature of 40° C. estimated to accelerate formation of fibrils.

[3] = biological target: T1, Aβ (10-35) formed into amyloid fibrils (nucleus) (Homo sapiens, UniProt P05067); assay: Amplification, with the artificial peptide, of formation of fibrils of Aβ (10-35) formed into fibrils, monitored with ThT; format: biochemical; details: peptide 200 μM, Aβ (10-35) nucleus 10 μM, room temperature; for increase in ThT fluorescent intensity in the presence of the nucleus: after 1 day
T1 construct: peptide [Aβ (10-35)] consisting of 10 to 35 residues of amyloid β peptide; made in house; host or cells: chemical synthesis (Fmoc solid phase method)
Protocol: The amplification of formation of fibrils of Aβ (10-35) formed into amyloid fibrils was attempted by using each of the artificial peptides synthesized in Example 1. A small amount of Aβ (10-35) previously formed into fibrils under the condition in (1-2) above was added to a solution of the artificial peptide, and the amplification of formation of fibrils was monitored with ThT.
Starting solution used: [peptide]=2 mM solution in TFE
Concentrations: [peptide]=200 μM, [Aβ (10-35) (nucleus)]=10 μM • (20 mM Tris-HCl buffer (pH 7.4))
(§1) Aβ (10-35) (nucleus) was homogenized by sonication for 1 hour before dilution.
Temperature: room temperature
Concentration: [peptide]=5 μM, [ThT]=6 μM • (20 mM Tris-HCl buffer (pH 7.4))
Stirring conditions: The whole volume of the reaction mixture was sufficiently stirred with a Pasteur pipette before sampling, and then sufficiently stirred in a cell with a Pasteur pipette.
Excitation wavelength: 440 nm, detection wavelength: 482 nm.

[4] = biological target: T1, Aβ (10-35) formed into amyloid fibrils (nucleus); assay: Amplification of fibrils of Aβ (10-35) formed into amyloid fibrils, measurement using a plate reader; format: biochemical; details: high to low; for rank of difference in fluorescence intensity between nucleus added and not added (ability to amplify fibrils): after completion of fluorescent intensity change; for rank of increase in fluorescent intensity among peptides to which the nucleus had been added: with Aβ (10-35) nucleus
Protocol: A test for the amplification of fibrils of Aβ (10-35) formed into amyloid fibrils by using the artificial peptide of the present invention in Example 2 was attempted using a plate reader.
Starting solution used: [peptide]=5 mM solution in DMSO
Concentrations: [peptide]=20 μM, [Aβ (10-35) (nucleus)]=2.5 μM • (20 mM Tris-HCl buffer (pH 7.4))
as §1
Concentrations: [peptide]=18 μM, [ThT]=25 μM • (20 mM Tris-HCl buffer (pH 7.4))
Stirring conditions: The whole volume of the reaction mixture was stirred 3 times for 2 seconds with a vortex and then (100 μl×2) was stirred with a micropipette in a well before measurement.
Excitation wavelength: 440 nm, detection wavelength: 490 nm.

| Substance | secondary structure by CD spectrum [1] | CD spectral change with time [1] | time required to finish formation of fibrils at 40° C. compared with ordinary temperatures [2] | time having elapsed until the increase in fluorescent intensity was finished [2] | fluorescent intensity with the nucleus relative to that in the absence of the nucleus [3] | increase in ThT fluorescent intensity in the presence of the nucleus [3] | rank of difference in fluorescence intensity between nucleus added and not added (ability to amplify fibrils) [4] | rank of increase in fluorescent intensity among peptides to which the nucleus had been added [4] |
| --- | --- | --- | --- | --- | --- | --- | --- | --- |
| Ac-Lys-Gln-Lys-Leu-Leu-Leu-Leu-Leu-Glu-Glu-NH2 (Ac-KQKLLLLLEE-NH2) [10-3L] | spectra unique to β-sheet structure | increased signals with time | significantly shortened | 3 days | twice as high | significant increase in fluorescent intensity | highest | order of 10-4F, 10-3L, 10-3F, and 10-3A |
| Ac-Lys-Gln-Lys-Leu-Leu-Phe-Leu-Leu-Glu-Glu-NH2 (Ac-KQKLLFLLEE-NH2) [10-3F] | spectra unique to β-sheet structure | increased signals with time | hardly changed | about 6 days | – | no increase in fluorescent intensity | order of 10-3L, 10-4F, 10-3F, and 10-3A | order of 10-4F, 10-3L, 10-3F, and 10-3A |
| Aβ (14-23): peptide consisting of 14 to 23 residues of amyloid β peptide (HQKLVFFAED; Amyloid-beta protein 42; UniProt P05067 685-694, looked up, fragment) | spectra unique to random coil state | no spectral change with time | significantly shortened | – | – | – | – | – |
| Ac-Lys-Gln-Lys-Leu-Leu-Leu-Phe-Leu-Glu-Glu-NH2 (Ac-KQKLLLFLEE-NH2) [10-4F] | spectra unique to β-sheet structure | increased signals with time | hardly changed | about 6 days | – | significant increase in fluorescent intensity | order of 10-3L, 10-4F, 10-3F, and 10-3A | largest increase in fluorescent intensity |
| Ac-Lys-Gln-Lys-Leu-Leu-Ala-Leu-Leu-Glu-Glu-NH2 (Ac-KQKLLALLEE-NH2) [10-3A] | spectra unique to random coil state | no spectral change with time | – | – | – | no increase in fluorescent intensity | order of 10-3L, 10-4F, 10-3F, and 10-3A | order of 10-4F, 10-3L, 10-3F, and 10-3A |
| Aβ (10-35): peptide consisting of 10 to 35 residues of amyloid β peptide, used as the nucleus of amyloid fibril (YEVHHQKLVFFAEDVGSNKGAIIGLM; Amyloid-beta protein 42; UniProt P05067 681-706, looked up, fragment) [reference compound] | spectra unique to β-sheet structure | increased signals with time | – | – | – | – | – | – |
